Consider two molecules from patent US20220315554A1, “COMPOUNDS COMPRISING A […] LIGAND AND USE THEREOF” (priority 2019, published 2022).

Holding throughout (settings): remark: other sources report otherwise
Assay [1] deals with CB2 (h) (human (printed (h))), P34972. As to the kind of experiment: radioligand displacement, 10 uM compound.
In assay [2] the target is T1, M1 (h) (human (printed (h))), P11229.
T1 chain: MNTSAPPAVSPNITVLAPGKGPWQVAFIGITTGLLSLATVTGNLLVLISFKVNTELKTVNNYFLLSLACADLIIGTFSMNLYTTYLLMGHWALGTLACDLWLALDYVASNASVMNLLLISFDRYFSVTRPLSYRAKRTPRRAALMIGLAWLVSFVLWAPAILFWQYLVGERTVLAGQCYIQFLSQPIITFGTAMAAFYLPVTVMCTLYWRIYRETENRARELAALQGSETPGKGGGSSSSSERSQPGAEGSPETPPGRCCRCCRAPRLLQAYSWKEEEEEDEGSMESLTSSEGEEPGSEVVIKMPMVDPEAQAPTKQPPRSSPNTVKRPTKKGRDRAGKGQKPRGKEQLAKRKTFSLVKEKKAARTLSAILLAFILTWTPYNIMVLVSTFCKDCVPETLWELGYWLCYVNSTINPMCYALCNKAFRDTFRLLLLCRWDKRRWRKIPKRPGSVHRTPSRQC
Put plainly: radioligand displacement, 10 uM compound. On the technique in general: In a radioligand displacement assay an active substance lowers the binding of a labelled ligand.

Assay [3] deals with H1 (h) (human (printed (h))), P35367. As to the kind of experiment: radioligand displacement, 10 uM compound.
The target in assay [4] is T2, 5-HT3 (h) (human (printed (h))), P46098.
T2 chain: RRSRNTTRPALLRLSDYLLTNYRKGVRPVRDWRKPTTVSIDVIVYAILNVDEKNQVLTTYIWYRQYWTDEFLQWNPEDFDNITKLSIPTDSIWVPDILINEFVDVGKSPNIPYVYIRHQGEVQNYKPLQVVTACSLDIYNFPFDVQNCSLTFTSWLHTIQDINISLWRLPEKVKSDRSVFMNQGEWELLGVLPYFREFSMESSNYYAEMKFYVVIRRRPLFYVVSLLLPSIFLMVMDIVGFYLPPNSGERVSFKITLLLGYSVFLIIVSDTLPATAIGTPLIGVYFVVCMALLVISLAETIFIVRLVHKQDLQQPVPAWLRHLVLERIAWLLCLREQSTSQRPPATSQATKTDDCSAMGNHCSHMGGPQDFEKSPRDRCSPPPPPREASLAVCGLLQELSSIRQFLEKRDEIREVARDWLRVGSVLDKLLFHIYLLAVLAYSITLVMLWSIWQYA
Put plainly: radioligand displacement, 10 uM compound.

The target of assay [5] is 5-HT1B (h) (human (printed (h))), P28222. As to the kind of experiment: radioligand displacement, 10 uM compound.
In assay [6] the target is beta 1 (h) (human (printed (h))), P08588. As to the kind of experiment: radioligand displacement, 10 uM compound.
Assay [7] concerns the target T3, dopamine transporter (h) (human (printed (h))), Q01959.
T3 chain: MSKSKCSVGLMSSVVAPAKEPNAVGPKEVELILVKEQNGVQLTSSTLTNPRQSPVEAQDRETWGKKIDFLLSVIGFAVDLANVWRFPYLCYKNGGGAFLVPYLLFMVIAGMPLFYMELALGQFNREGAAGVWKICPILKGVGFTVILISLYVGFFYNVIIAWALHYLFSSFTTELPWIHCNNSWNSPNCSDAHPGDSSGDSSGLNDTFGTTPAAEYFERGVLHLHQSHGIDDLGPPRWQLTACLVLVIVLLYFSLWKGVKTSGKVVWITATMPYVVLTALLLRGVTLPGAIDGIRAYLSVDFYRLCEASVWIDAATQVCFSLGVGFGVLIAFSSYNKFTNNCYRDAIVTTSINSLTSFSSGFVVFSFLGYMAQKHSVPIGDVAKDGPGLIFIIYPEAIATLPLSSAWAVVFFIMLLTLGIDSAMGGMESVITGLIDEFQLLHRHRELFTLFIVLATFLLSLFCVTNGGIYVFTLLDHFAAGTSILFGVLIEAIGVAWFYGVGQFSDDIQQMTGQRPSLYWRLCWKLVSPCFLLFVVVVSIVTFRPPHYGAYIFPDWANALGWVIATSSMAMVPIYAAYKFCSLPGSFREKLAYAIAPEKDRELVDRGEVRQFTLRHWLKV
Put plainly: radioligand displacement, 10 uM compound.

The target in assay [8] is T4, Potassium Channel hERG (human) (human), Q12809.
T4 chain: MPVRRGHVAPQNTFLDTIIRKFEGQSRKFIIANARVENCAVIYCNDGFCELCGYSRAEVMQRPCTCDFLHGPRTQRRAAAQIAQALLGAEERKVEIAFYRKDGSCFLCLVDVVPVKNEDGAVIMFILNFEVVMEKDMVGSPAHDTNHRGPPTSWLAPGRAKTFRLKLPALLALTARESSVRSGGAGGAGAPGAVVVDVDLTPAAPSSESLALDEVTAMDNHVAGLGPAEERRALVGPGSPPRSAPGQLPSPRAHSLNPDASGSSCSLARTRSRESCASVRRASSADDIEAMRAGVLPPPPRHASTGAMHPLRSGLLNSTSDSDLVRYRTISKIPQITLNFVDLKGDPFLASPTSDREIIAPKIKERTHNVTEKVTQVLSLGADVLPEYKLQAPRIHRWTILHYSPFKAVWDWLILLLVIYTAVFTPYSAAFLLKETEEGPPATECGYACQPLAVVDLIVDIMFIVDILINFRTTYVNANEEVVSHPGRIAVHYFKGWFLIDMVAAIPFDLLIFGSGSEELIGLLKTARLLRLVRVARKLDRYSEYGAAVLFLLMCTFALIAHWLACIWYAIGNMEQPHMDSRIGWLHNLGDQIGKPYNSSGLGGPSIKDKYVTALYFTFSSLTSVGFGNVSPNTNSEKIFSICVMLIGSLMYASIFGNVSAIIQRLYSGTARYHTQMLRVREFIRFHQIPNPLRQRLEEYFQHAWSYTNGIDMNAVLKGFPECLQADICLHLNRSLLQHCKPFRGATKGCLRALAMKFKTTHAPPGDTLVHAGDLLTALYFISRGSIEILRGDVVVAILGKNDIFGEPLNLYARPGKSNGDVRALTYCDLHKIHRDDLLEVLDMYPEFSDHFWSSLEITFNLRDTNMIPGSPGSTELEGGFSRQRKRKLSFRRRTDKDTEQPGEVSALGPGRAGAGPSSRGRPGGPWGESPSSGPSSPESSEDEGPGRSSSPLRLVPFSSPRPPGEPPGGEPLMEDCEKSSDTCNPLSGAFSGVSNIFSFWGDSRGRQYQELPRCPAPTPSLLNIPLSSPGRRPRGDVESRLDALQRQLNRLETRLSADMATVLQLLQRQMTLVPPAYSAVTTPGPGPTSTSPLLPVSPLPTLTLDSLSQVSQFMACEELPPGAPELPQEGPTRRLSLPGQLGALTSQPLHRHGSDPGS
Put plainly: [3H] Dofetilide displacement, 10 uM compound.

Bridge positions count the residues as written; N and C are the ends. * marks the point of attachment. tMeBn(DOTA-AET) = Cys-Cys bridge (thioethers) carrying DOTA-AET; tMeBn(DOTA-PP) = Cys-Cys bridge (thioethers) carrying DOTA-PP; Hexanoyl = CCCCCC(=O)*

Sequence of CB2 (h) (human (printed (h))), P34972 (P34972 whole entry): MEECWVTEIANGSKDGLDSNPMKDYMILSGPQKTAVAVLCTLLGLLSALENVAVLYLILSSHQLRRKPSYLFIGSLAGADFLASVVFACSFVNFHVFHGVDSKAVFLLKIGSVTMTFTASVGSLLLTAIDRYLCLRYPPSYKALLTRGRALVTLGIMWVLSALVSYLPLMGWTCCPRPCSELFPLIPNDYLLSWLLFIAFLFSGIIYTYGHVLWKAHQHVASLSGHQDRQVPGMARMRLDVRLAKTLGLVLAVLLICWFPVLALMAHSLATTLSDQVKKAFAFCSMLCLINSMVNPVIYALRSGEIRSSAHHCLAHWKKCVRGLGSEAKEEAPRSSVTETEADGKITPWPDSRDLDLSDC
Sequence of H1 (h) (human (printed (h))), P35367 (P35367 whole entry): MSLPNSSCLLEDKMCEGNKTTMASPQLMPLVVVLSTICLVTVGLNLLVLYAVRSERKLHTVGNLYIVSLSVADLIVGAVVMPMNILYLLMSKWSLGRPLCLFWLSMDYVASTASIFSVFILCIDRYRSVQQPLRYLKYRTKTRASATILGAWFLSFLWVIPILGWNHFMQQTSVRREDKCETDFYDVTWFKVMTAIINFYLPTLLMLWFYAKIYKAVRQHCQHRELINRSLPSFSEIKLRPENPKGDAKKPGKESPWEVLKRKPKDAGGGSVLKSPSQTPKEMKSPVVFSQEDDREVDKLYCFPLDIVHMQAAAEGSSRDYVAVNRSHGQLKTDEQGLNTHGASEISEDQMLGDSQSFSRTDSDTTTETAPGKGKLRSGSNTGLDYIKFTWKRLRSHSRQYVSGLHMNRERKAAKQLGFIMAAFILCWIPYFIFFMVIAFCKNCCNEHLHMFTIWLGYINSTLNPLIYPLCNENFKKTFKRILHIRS
Sequence of 5-HT1B (h) (human (printed (h))), P28222 (P28222 whole entry): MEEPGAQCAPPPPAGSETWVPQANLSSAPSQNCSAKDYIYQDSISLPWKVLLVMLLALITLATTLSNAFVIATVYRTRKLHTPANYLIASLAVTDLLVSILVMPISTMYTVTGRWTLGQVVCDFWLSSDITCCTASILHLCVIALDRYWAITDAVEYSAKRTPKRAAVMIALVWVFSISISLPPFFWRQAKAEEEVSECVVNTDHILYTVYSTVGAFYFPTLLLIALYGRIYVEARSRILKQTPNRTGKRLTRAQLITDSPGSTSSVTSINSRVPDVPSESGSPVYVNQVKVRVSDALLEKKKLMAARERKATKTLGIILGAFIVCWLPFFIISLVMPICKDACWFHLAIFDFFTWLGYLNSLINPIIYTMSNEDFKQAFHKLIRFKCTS

Take Hexanoyl-CPPTQFCD-NH2 (linker 1-7 via tMeBn(DOTA-PP)) [Hex-[Cys(tMeBn(DOTA-PP))-Pro-Pro-Thr-Gln-Phe-Cys]-Asp-NH2 (3BP-3407)]: the % Inhibition of Specific Binding is 2% in assay [1]; 6% in assay [2]; 11% in assay [3]; 2% in assay [4]; -11% in assay [5]; 4% in assay [6]. In addition, the figures for the % Inhibition of Specific Binding in assay [7] and in assay [8] were 12% and 2%, respectively.

As for Hexanoyl-CPPTQFC-OH (linker 1-7 via tMeBn(DOTA-AET)) [Hex-[Cys(tMeBn(DOTA-AET))-Pro-Pro-Thr-Gln-Phe-Cys]-OH (3BP-3554)], the % Inhibition of Specific Binding in assay [1] was -5%; in assay [2], 8%; in assay [3] it was 4%; in assay [4], 4%; in assay [5], 8%; in assay [6] it was -13%. In addition, the % Inhibition of Specific Binding in assay [7] was 7%; in assay [8], 6%.
